The source of these data is patent US20240165282A1, “CONFORMATIONAL CONSTRAINED SOMATOSTATIN RECEPTOR 3 PEPTIDE LIGANDS AND THEIR CONJUGATES AND USES THEREOF” (STARGET PHARMA LTD., priority 2021, published 2024).

*1 amine or outer side, *2 acyl side, *3 side chain or, on linkers, in order; H or OH if unused. Where a SMILES comes first, the peptide text is derived from it. Bridges are numbered along the chain shown (N, C = ends). [ ]: non-standard residue; d: D form. The star is where a group is joined. DOTA = O=C(O)CN1CCN(CC(=O)O)CCN(CC(=O)*)CCN(CC(=O)O)CC1; N(2-mercaptoethyl)Gly = O=C(CN(CCS[*:3])[*:1])[*:2]

Data set [1] has as its system Xenograft of SSTR3 transfected HEK-293 cells. Briefly: in vivo. The note with it: rat. The protocol:
(§1) In this example, imaging performance, biodistribution and tumor uptake of SSTR3 selective radioligands in rodents bearing xenografts of transfected SSTR3 cells was determined using the following method: Animal handling was conducted in accordance with the European Council Directive 2010/63/UE. All experimental procedures were approved by the Institutional Ethical Committee and local authorities. For biodistribution studies, female nude nu/nu Balb/c mice or nude nu/nu rats (Charles River) were used. Dynamic PET-CT imaging experiments were performed up to 240 minutes in mice and up to 270 minutes in rats, under isoflurane anesthesia following the intravenous injection of the radiolabeled tracers. All experiments were performed during the light phase of the light—dark cycle. Biodistribution was determined by quantitative analysis of the PET-CT scan and calculated as % percentage of […] of the total injected dose (%ID/g) or by the value of SUV which is the ratio of the image-derived radioactivity concentration Cimg and the whole-body concentration of the injected radioactivity Cinj.

A further data set can be described thus: in vivo. To be noted: iv, total radioactivity. The protocol: as §1
Data set [2] has as its system Desmoplastic Small Round Cell Tumor with SSTR3 expression. The format is in vivo, human. Here is the method:
In this example, the safety, biodistribution, imaging performance and tumor uptake in patient with sarcoma type DSRCT tumor positive SSTR3 expression was evaluated. Following radiolabeling of the title compound, the eluted solution of the radiolabel tracer was filtered for sterility and injected intravenously in isotonic solution. PET-CT scan was performed at 30- and 120-minutes post injection of the radiolabeled tracer at approximately 600 Mbq. Body temperature, heart rate, and blood pressure were monitored before during and after the PET-CT scan for safety evaluation. The patient was a person, diagnosed for DSRCT 8 years prior. Over the last 8 years, before the current example, the patient was treated with External beam radiation therapy (EBRT), chemotherapy (Irinotecan/temozolomide, melphalan/treosuflan, gemcitabine/docetaxel, pazopanib, topotecan/cyclophosphamide, cabozantinib, densumab), and laminectomy (to resect spine—tumoral foci). A biopsy analysis was performed 3 months before the PET-CT and indicated high mRNA expression of SSTR3.

Another data set deals with insulin release. The data set is described as follows: Glucose induced insulin release in rats. Format: in vivo, Wistar rats. The note with it: S.C. 100-1000 microgram/kg, glucose stimulation. The protocol: In vivo determination of the pharmacodynamic properties of SSTR3 analogs was carried out in rats, according to known procedures (Afargan M. et al., 2001, Pless J. et al 1986).
Adult male Wistar rats weighing 200-220 g, were maintained on a constant light-dark cycle (light from 8:00 to 20:00 h), temperature (21±3° C.), and relative humidity (55±10%). Laboratory chow and tap water were available ad libitum. All animals in the study were fasted overnight, animals were placed in cages with metal mesh to prevent coprophagia with free access to water. On the day of the experiment, rats were anesthetized with Nembutal (IP, 60 mg/kg). Ten minutes after anesthesia, drugs were administrated S.C. at 100-1000 microgram/kg dose. At 10 minutes after drugs administration the stimulation of GH and glucagon release were carried out by i.v. bolus administration of 0.5 g/kg L-arginine, stimulation of insulin release was carried out in separate animal groups that received i.v. bolus of 0.5 g/kg of glucose. Terminal blood samples in EDTA were collected at 5 minutes after stimulation. Blood samples were and centrifuged immediately. Plasma was separated and kept frozen at −20° C. until assayed.
Rat growth hormone (rGH), glucagon and insulin levels were determined by commercial ELISA kits using the Millipore ELISA kits (Billerica, MA, USA). The ELISA kit for rat plasma GH, Millipore, Cat. No. EZRMGH-45K was performed according to the validated detection method of colorimetric sandwich ELISA protocol (Supriya S. et al., 2013). The ELISA kit for rat plasma insulin, Millipore Cat. No. MMEZRMI13K (Merck) was performed according to the validated detection method of fluorescent colorimetric protocol (Xu, P.Z. et al., 2012). The ELISA kit for rat plasma glucagon, Millipore, Cat. No. EZGLU-35 was performed according to the validated detection method of chemiluminescent sandwich ELISA protocol (Soyeon Y. et al., 2021).
Data analysis of rat plasma GH, glucagon and insulin levels was evaluated by the averaged plasma hormones levels of each group. […] Results are expressed as the mean±SEM.

A further data set has as its target SSTR2 (Homo sapiens, UniProt P30874). The data set is described as follows: β-Arrestin mediated receptor internalization (PathHunter), transfected CHO cells. The format is cell-based. To be noted: SSTR2 transfected cells. Here is the method:
The assays were performed utilizing the PathHunter beta-arrestin enzyme fragment complementation (EFC) technology by Eurofins (CA, USA).
Cell Handling: 1. PathHunter cell lines were expanded from freezer stocks according to standard procedures. 2. Cells were seeded in a total volume of 20 μL into white walled, 384-well microplates and incubated at 37° C. for the appropriate time prior to testing. Agonist Format: 1. For agonist determination, cells were incubated with sample to induce response. 2. Intermediate dilution of sample stocks was performed to generate 5× sample in assay buffer. 3. 5 μL of 5× sample was added to cells and incubated at 37° C. or room temperature for 90 or 180 minutes. Final assay vehicle concentration was 1%. […] Microplates were read following signal generation with a PerkinElmer Envision™ instrument for chemiluminescent signal detection. Data Analysi: Compound activity was analyzed using CBIS data analysis suite (ChemInnovation, CA). […] For agonist mode assays, percentage activity was calculated using the following formula: % Activity=100%×(mean RLU of test sample−mean RLU of vehicle control)/(mean MAX control ligand−mean RLU of vehicle control). […] For antagonist mode assays, percentage inhibition was calculated using the following formula: % Inhibition =100%×(1−(mean RLU of test sample−mean RLU of vehicle control)/(mean RLU of EC80 control−mean RLU of vehicle control)). […]

Setting [3] is: female, nude nu/nu Balb/c, mouse, Kidneys % ID/cm^3.
[4] abbreviates: female, nude nu/nu Balb/c, mouse, Tumor % ID/cm^3.

SSTR2, sequence (P30874 whole entry, the tested form may be a part): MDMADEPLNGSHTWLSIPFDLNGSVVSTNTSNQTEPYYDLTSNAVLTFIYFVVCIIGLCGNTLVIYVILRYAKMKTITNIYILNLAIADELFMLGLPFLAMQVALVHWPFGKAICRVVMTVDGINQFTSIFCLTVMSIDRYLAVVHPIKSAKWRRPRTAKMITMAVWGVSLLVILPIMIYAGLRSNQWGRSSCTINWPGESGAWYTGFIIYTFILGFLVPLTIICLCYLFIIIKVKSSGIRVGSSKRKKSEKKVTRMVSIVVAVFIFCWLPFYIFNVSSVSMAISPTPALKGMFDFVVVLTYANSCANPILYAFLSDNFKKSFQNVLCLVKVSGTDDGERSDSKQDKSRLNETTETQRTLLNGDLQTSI

As for `C[C@@H](O)[C@@H]1NC(=O)[C@H](CCCCN)NC(=O)[C@@H](Cc2c[nH]c3ccccc23)NC(=O)[C@H](Cc2ccccc2)NC(=O)[C@@H](NC(=O)[C@H](CCCNC(=N)N)NC(=O)[C@@H](Cc2ccccc2)NC(=O)CN2CCN(CC(=O)O)CCN(CC(=O)O)CCN(CC(=O)O)CC2)CSSCCN(CC(N)=O)C(=O)[C@H](Cc2ccccc2)NC1=O` [^68Ga -SEQ ID NO: 4, metal not drawn] ({DOTA}-[dF]RCF[dW]KTF[N(2-mercaptoethyl)Gly]-NH2; disulfide 3-9), in data set [1], the “tumor uptake above the kidneys (tumor/kidneys)” value is reported as “approximately 50%”. Further, the “Kidneys SUV” value in data set [1] (iv) is recorded as 7.6. For the same molecule, in data set [1] (iv), the “Tumor SUV” value is recorded as 11.0. Further, the tissue uptake per volume at 2.5 h in “in vivo” (setting [3]) was determined as 6 %ID/mL; in the data set “in vivo” (setting [4]), 9.6 %ID/mL; in the data set “in vivo” (nude nu/nu, rat, Kidneys % ID/cm^3) it was 3.2 %ID/mL; in “in vivo” (nude nu/nu, rat, Tumor % ID/cm^3), 4.7 %ID/mL. Moreover, the tissue uptake per volume at 4 h in the data set “in vivo” (setting [3]) is 6.6 %ID/mL; in “in vivo” (setting [4]), 12.3 %ID/mL. In addition, the safety evaluations entry in data set [2] (human, in vivo) was “no abnormal toxicity signs”. In addition, the “uptake in off-target organs” value in data set [2] (human, in vivo) is “no uptake in off-target organs”. For the same molecule, in data set [2] (human, in vivo, iv), the “elimination of the tracer” value is given as “rapid elimination of the tracer was observed from the blood to the kidneys”. Besides, the “tumor uptake (radioactive foci)” value in data set [2] (patient with DSRCT, FIG. 9) is “several radioactive foci were detected in the lung, neck and pelvic regions”.

In the case of `C[C@@H](O)[C@@H]1NC(=O)[C@H](CCCCN)NC(=O)[C@@H](Cc2c[nH]c3ccccc23)NC(=O)[C@H](Cc2ccccc2)NC(=O)[C@@H](NC(=O)[C@H](N)Cc2ccccc2)CSSC[C@@H](C(=O)N[C@H](CO)[C@@H](C)O)NC1=O` [octreotide, reference compound], in the data set with insulin release, the “effect on insulin release” value is on record as “exhibits anti-secretagogue effect of pancreatic release of insulin”.

For the molecule SRIF-28, on SSTR2, the “Efficacy - maximal response” value amounted to 47480 RLU and the Note result was “Agonist”.
